According to patent US20080241126A1 (XOMA TECHNOLOGY, published 2008):
Changes are numbered by the printed parent chain. Blank lines part the entries; values can stand above or below the binder they belong to.

What was measured:
soluble human Ep-CAM = target: T1, soluble human Ep-CAM (human, UniProt P16422 24-265); test: ELISA, soluble Ep-CAM coated at 0.25 ug/mL, detection with AP-goat anti-human IgG
T1 construct: It was truncated by a stop codon at amino acid position 266 and secreted from CHO-K1 cells (pING1954, Clone 51); No signal peptide limits are stated; Multimers were seen on a non-reduced gel; also called sEp-CAM; truncated Ep-CAM
T1 sequence: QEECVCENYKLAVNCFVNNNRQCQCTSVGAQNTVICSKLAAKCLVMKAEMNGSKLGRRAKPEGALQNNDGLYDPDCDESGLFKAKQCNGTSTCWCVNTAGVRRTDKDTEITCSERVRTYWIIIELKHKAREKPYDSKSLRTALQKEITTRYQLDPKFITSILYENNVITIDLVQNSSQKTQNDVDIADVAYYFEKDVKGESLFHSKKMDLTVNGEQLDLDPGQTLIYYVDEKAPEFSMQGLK

[1] = target: T2, Ep-CAM on the surface of HT-29 human colorectal carcinoma cells (human, UniProt P16422 24-314); test: competition with 125I-labeled chimeric ING-1 on HT-29 cells
T2 construct: The gene was obtained from HT-29 mRNA; also called epithelial cell adhesion molecule; Ep-CAM expressing HT-29 cells
T2 sequence: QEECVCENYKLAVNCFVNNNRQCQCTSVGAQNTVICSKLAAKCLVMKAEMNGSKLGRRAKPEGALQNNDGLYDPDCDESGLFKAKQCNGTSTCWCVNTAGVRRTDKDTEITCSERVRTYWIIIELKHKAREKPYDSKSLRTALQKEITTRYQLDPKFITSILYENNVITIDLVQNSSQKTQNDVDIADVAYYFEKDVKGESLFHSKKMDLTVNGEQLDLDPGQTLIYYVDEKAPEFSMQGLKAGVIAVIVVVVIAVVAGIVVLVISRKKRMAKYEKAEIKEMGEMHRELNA
Text: Vectors constructed according to Example 1 encoding human engineered ING-1 light and heavy chain genes, for example, pING1937 (low risk human engineered ING-1) and pING1944 (low plus moderate risk human engineered ING-1) were linearized by XbaI and used to transfect serum-free adapted CHO-K1 followed by selection of G418-resistant transfectants. Protein was purified from shake flask culture supernatants by passage over a protein A column. To evaluate the binding activity of the produced immunoglobulin polypeptides, competition binding assays with the human carcinoma cell line HT-29 were performed. This colorectal carcinoma cell line expresses a molecule known as Ep-CAM on its surface. Ep-CAM is recognized by immunoglobulin polypeptides having the antigen binding specificity of the mouse-human chimeric ING-1 antibody produced by cell line HB9812 as produced by ATCC.
HT-29 cells were grown to confluency (˜2×10⁵ cells/well) in 96 well plates. Mouse-human chimeric ING-1 was labeled with Na¹²⁵I (Iodo-gen®, Pierce). The competition conditions included in a 100 μl assay volume, 0.1 nM labeled mouse-human chimeric ING-1, 2-fold serial dilutions of unlabeled immunoglobulin polypeptides, for example, as produced by cells transfected with pING1937 and pING1944. […] Labeled cells were removed with NaOH and counted. […]

[2] = target: T2, Ep-CAM on the surface of HT-29 human …; test: competition binding on HT-29 cells (FIG. 16)
Method: HT-29 cells were grown to confluency (˜2×10⁵ cells/well) in 96 well plates. Mouse-human chimeric ING-1 was labeled with Na¹²⁵I (Iodo-gen®, Pierce). The competition conditions included in a 100 μl assay volume, 0.1 nM labeled mouse-human chimeric ING-1, 2-fold serial dilutions of unlabeled immunoglobulin polypeptides, for example, as produced by cells transfected with pING1937 and pING1944. The labeled and unlabeled immunoglobulin polypeptides were incubated with HT-29 cells at 4° C. for 5 hours followed by washing. Labeled cells were removed with NaOH and counted. Data analysis was performed using Ligand, [Munson and Redbard, […] 107: 220-239 (1980)].
Human engineered ING-1 modified at the low risk plus moderate risk positions was also evaluated using competition binding assays. No differences in binding between the mouse-human chimeric and the human engineered (low risk) ING-1 was observed.

[3] = target: T2, Ep-CAM on the surface of HT-29 human …; test: competition with iodinated low risk ING-1 on HT-29 cells (FIG. 17)

- binding result (soluble human Ep-CAM): binds
- binding result [1]: binds
B1: human engineered (low risk) ING-1 (antibody, human IgG1, kappa)
VL: DIVMTQSALSNPVTLGESGSISCRSSKSLLHSNGITYLYWYLQKPGQSPQLLIYQMSNRASGVPDRFSSSGSGTDFTLKISRVEAEDVGVYYCAQNLELPRTFGQGTKLEMKRTVAAPSVFIFPPSDEQLKSGTASVVCLLNNFYPREAKVQWKVDNALQSGNSQESVTEQDSKDSTYSLSSTLTLSKADYEKHKVYACEVTHQGLSSPVTKSFNRGEC
VH: not shown
notes: It has 6 low risk changes in VL and 13 in VH; also called human engineered ING-1; ING-1(heMab)

- binding result [2]: binds
B2: human engineered (low plus moderate risk) ING-1 (antibody, human IgG1, kappa)
VL: B1 VL with A8P, N11L, L15P, S18P
VH: not shown
notes: IgG with human kappa and gamma-1 constant regions, built like pING1937; It has 10 low plus moderate risk changes in VL and 20 in VH; also called product of pING1944

- binding result [3]: binds
B3: modified ING-1 with low risk light chain and low plus moderate risk heavy chain (antibody, human IgG1, kappa)
VL: B1 VL
VH: not shown
notes: It is an IgG purified on protein A with human kappa and gamma-1 constant regions; also called combination of a low risk light chain with a low plus moderate risk heavy chain

- binding result [3]: binds
B4: modified ING-1 with low plus moderate risk light chain and low risk heavy chain (antibody, human IgG1, kappa)
VL: B1 VL with A8P, N11L, L15P, S18P
VH: not shown
notes: It is an IgG purified on protein A with human kappa and gamma-1 constant regions; also called low risk heavy chain with a low plus moderate risk light chain

- binding result [1]: binds
B5: mouse-human chimeric ING-1 antibody (as produced by cell line HB9812, ATCC) (antibody, human IgG1, kappa, V domains shown)
VH: QIQLVQSGPELKKPGETVKISCKASGYTFTKYGMNWVKQAPGKGLKWMGWINTYTEEPTYGDDFKGRFAFSLETSASTANLQINNLKSEDTATYFCARFGSAVDYWGQGTSVTVSS
VL: DIVMTQAAFSNPVTLGTSGSISCRSSKSLLHSNGITYLYWYLQKPGQSPQLLIYQMSNLASGVPDRFSSSGSGTDFTLRISRVEAEDVGVYYCAQNLELPRTFGGGTKLEMKR
notes: The labelled tracer form was iodinated with Na125I
